# Reference: patent US20120014941A1 (Hoffmann-La Roche, published 2012)
# Read-outs that look alike come from different tables or passages of the source.
# T1: recombinant human Bv8 (PeproTech) (human, UniProt Q9HC23-2 28-108, biotinylated (Sulfo-NHS-LC-biotin) in the two competition ELISAs with coated antibody)
# T1 construct: Bought protein; also called HuBv8; prokineticin-2
# T1 sequence (looked up): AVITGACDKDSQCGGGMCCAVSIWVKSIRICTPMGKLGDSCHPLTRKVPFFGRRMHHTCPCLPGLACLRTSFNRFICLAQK
# Key:
# [1] = molecular target: T1, recombinant human Bv8 (PeproTech); experiment: SPR (BIAcore 3000, 25 C): human Bv8 coupled to CM5 chip, IgG injected; 1:1 Langmuir fit; off-rate followed for 30 min
# Source text: (§1) For binding affinity determinations of anti-Bv8 antibodies (Fab or IgG), Surface Plasmon Resonance (SRP) measurement with a BIAcore™-3000 instrument was used. Briefly, CM5 biosensor chip was activated with EDC and NHS reagents according to the supplier's instructions, and human Bv8 (PeproTech) or Cynomologus Monkey (Genentech; PUR21590) was coupled to achieve approximately 150 response units (RU), then following by blocking un-reacted groups with 1M ethanolamine. For kinetics measurements, two-fold serial dilutions of anti-Bv8 Fabs (0.19 nM to 25 nM) or IgGs (0.019 nM to 10 nM) were injected in HBS-P buffer (0.01M HEPES pH 7.4, 0.15M NaCl, 0.005% surfactant P20) at 25° C. with a flow rate of 30 μl/min. Association rates (kₒₙ) and dissociation rates (koff) were calculated using a simple one-to-one Langmuir binding model (BIAcore Evaluation Software version 3.2). The equilibrium dissociation constant (Kd) was calculated as the ratio koff/kₒₙ.
# [2] = molecular target: T1, recombinant human Bv8 (PeproTech); experiment: SPR, BIAcore-3000, Bv8 coupled to CM5 chip, IgG (FIG. 21)
# Source text: as §1
# [3] = molecular target: Cynomologus Monkey Bv8 (Genentech; PUR21590) (cynomolgus monkey); experiment: SPR (BIAcore 3000, 25 C): cynomolgus monkey Bv8 coupled to CM5 chip, IgG injected; 1:1 Langmuir fit
# [4] = molecular target: T1, recombinant human Bv8 (PeproTech); experiment: competitive ELISA: antibody in serial dilution mixed with biotinylated human Bv8 (57 pM) and put on plate coated with mouse 2G9 IgG1 (m5, the competitor); streptavidin-HRP, OD 450/620; four-parameter fit
# Protocol: Maxisorp 384 well plates were coated with 1 μg/ml parent mouse 2G9 IgG1 antibody at 25 μl/well in 50 mM sodium carbonate buffer, pH 9.6, at 4° C. overnight. Plates were washed with phosphate buffered saline (PBS) containing 0.05% polysorbate, pH 7.4 and blocked with PBS containing 0.5% BSA, 10 ppm Proclin, pH 7.4, at 80 μL1/well. After one-hour incubation at room temperature, plates were washed. A mixture of serially diluted humanized 2G9 antibodies (0.11 pM-180 nM) in PBS containing 0.5% BSA, 0.05% polysorbate 20, pH 7.4 and biotinylated human Bv8 (final concentration 0.5 ng/ml or 57 pM) were added at 25 μL1/well. After two hour incubation, plates were washed and horseradish peroxidase conjugated streptavidin (GE Healthcare) was added. After a final 30 minute incubation, plates were washed and the substrate 3,3′,5,5′-tetramethyl benzidine (Kirkegaard & Perry Laboratories) was added. The reaction was stopped by adding 1 M phosphoric acid and absorbance was read at 450 nm on a Multiskan Ascent reader (Thermo Scientific, Hudson, N.H.). For data analysis, the titration curves were fitted using a four-parameter nonlinear regression curve-fitting program and the IC₅₀ concentrations were determined (KaleidaGraph, Synergy Software, Reading, Pa.).
# [5] = molecular target: T1, recombinant human Bv8 (PeproTech); experiment: SPR (BIAcore 3000, 25 C): human Bv8 coupled to CM5 chip, IgG injected; 1:1 Langmuir fit
# Source text: as §1
# [6] = molecular target: Cynomologus Monkey Bv8 (Genentech; PUR21590) (cynomolgus monkey); experiment: SPR (BIAcore 3000, 25 C): cynomolgus monkey Bv8 coupled to CM5 chip, IgG injected; 1:1 Langmuir fit; off-rate followed for 30 min
# [7] = molecular target: T1, recombinant human Bv8 (PeproTech); experiment: SPR (BIAcore 3000, 25 C): human Bv8 coupled to CM5 chip, IgG injected; 1:1 Langmuir fit; remark: listed apart in the source
# Source text: as §1
# [8] = molecular target: T1, recombinant human Bv8 (PeproTech); experiment: SPR (BIAcore 3000, 25 C): human Bv8 coupled to CM5 chip, IgG injected; 1:1 Langmuir fit; off-rate followed for 30 min; remark: listed apart in the source
# Source text: as §1
# [9] = molecular target: Cynomologus Monkey Bv8 (Genentech; PUR21590) (cynomolgus monkey); experiment: SPR, BIAcore-3000, Bv8 coupled to CM5 chip, IgG (FIG. 21)
# [10] = molecular target: Cynomologus Monkey Bv8 (Genentech; PUR21590) (cynomolgus monkey); experiment: SPR (BIAcore 3000, 25 C): cynomolgus monkey Bv8 coupled to CM5 chip, IgG injected; 1:1 Langmuir fit; remark: listed apart in the source
# [11] = molecular target: T1, recombinant human Bv8 (PeproTech); experiment: phage competition ELISA: Fab-displaying phage preincubated with serially diluted soluble human Bv8 (the concentration on the axis), unbound phage captured on plate-coated human Bv8, anti-M13-HRP; bound phage in %
# Protocol: (§2) MAXISORP™ microtiter plates were coated with recombinant human Bv8 (PeproTech) at 2 μg/ml in PBS overnight and then blocked with PBST buffer (0.5% BSA and 0.05% Tween 20 in PBS) for an hour at room temperature (RT). Phage from culture supernatants were incubated with serially diluted human Bv8 in PBST buffer in a tissue-culture microtiter plate for an hour at RT, after which 80 μl of the mixture was transferred to the target-coated wells for 15 minutes to capture unbound phage. The plate was washed with PBT buffer (0.05% Tween 20 in PBS), and HRP-conjugated anti-M13 (Amersham Pharmacia Biotech) was added (1:5000 in PBST buffer) for 40 minutes. The plate was washed with PBT buffer and developed by adding tetramethylbenzidine substrate (Kirkegaard and Perry Laboratories, Gaithersburg, Md.). The absorbance at 450 nm was plotted as a function of target concentration in solution to determine phage IC₅₀.
# [12] = molecular target: T1, recombinant human Bv8 (PeproTech); experiment: phage competition ELISA, Fab displayed on phage
# Protocol: as §2
# [13] = molecular target: T1, recombinant human Bv8 (PeproTech); experiment: competition ELISA: IgG in serial dilution preincubated with 2 nM biotinylated human Bv8, then put on plate coated with chimeric 2B9 IgG (the competitor); bound biotin-Bv8 read with streptavidin-HRP, in %
# Protocol: NUNC™ 96-well Maxisorp immunoplates (NUNC; Roskilde, Denmark) were coated with chimeric 2B9 IgG at 1 μg/mL in PBS overnight and then blocked for an hour at room temperature with PBST buffer (0.5% BSA and 0.05% Tween 20 in PBS). Biotinylation of human Bv8 was prepared using EZ-link Sulfo-NHS-LC-Biotin (Catalog 21335; Pierce; Rockford, Ill.) reagent in a molar ratio of 1:4 (HuBv8: biotin).
# To determine the amount of biotinylated human Bv8 in the competition assay, threefold serially diluted biotinylated human Bv8 from 100 nM to 0.04 nM were added to the antibody-coated plates for 15 minutes. Then, the plates were washed with PBT buffer (PBS and 0.05% Tween 20). Bound biotinylated were detected using streptavidin, which were conjugated with horseradish peroxidase (Catalog 21126; Pierce; Rockford, Ill.) and diluted 1:2500 in PBST buffer. […] The optical density was read spectrophotometrically at 450 nm.
# To map the Bv8 antibody epitopes with chimeric 2B9, threefold serial dilutions of IgGs (chimeric 2B9, chimeric 3F1, chimeric 2D3, chimeric 2G9 and control IgG) were first incubated with 2 nM biotinylated human Bv8, determined by the above binding assay, in PBST buffer for 1-2 hours at room temperature, and then transferring it onto antibody (chimeric 2B9 IgG; 1 μg/mL)-coated plate for 15 min. […]
Binder,Kd [1] [pM],koff [1] [s⁻¹],fold tighter binding than chimeric 2G9 [2] [fold],kon [3] [M⁻¹ s⁻¹],IC50 [4] [pM],kon [5] [M⁻¹ s⁻¹],Kd [6] [pM],koff [6] [s⁻¹],kon [7] [M⁻¹ s⁻¹],Kd [8] [pM],koff [8] [s⁻¹],fold tighter binding than chimeric 2G9 [9] [fold],kon [10] [M⁻¹ s⁻¹],IC50 (read off the curve) [11] [pM],fold drop in binding affinity compared to h2G9.K4G1 [12] [fold],Kd [3] [pM],koff [3] [s⁻¹],Kd [5] [pM],koff [5] [s⁻¹],IC50 (read off the curve) [13] [pM]
"h2G9.K4G1 variant CDR-H3 D95E (Fab, V domains shown) VH: EVQLVQSGAEVKKPGASVKVSCKASGYSFTDYDMHWVRQAPGQGLEWIGYISCYNGATTYNQKFKGRVTITVDKSTSTAYLELSSLRSEDTAVYYCAREGNYGEAYAMDYWGQGTLVTVSS VL: DIVMTQSPDSLAVSLGERATINCKASQSVDYDGDSYMNWYQQKPGQPPKLLIYAASNLESGVPDRFSGSGSGTDFTLTISSLQAEDVAVYYCQQINEDPFTFGQGTKVEIK",–,–,–,–,–,–,–,–,–,–,–,–,–,~4000,100,–,–,–,–,–
"chimeric 2G9 anti-Bv8 antibody (IgG) (antibody, V domains shown, also called chimeric 2G9 IgG) VH: EVQLQQSGPEVVKTGASVKISCKASGYSFTDYDMHWVKQSQGKSLEWIGYISCYNGATTYNQKFKGKATFTVDKSSTTAYMQFNSLTSEDSAVYYCARDGNYGEAYAMDYWGQGTSLTVSS VL: DIVLTQSPASLAVSLGQRATISCKASQSVDYDGDSYMNWYQQKPGQPPKLLIYAASNLESGIPARFSGSGSGTDFTLNIHPVEEEDAATYYCQQINEDPFTFGQGTKVEIK",–,–,–,646000,80,758000,–,–,–,–,–,–,–,–,–,40,2.5e-05,20,1.8e-05,~1000

# Other lines, results leading:
Kd [1] [pM],koff [1] [s⁻¹],fold tighter binding than chimeric 2G9 [2] [fold],kon [3] [M⁻¹ s⁻¹],IC50 [4] [pM],kon [5] [M⁻¹ s⁻¹],Kd [6] [pM],koff [6] [s⁻¹],kon [7] [M⁻¹ s⁻¹],Kd [8] [pM],koff [8] [s⁻¹],fold tighter binding than chimeric 2G9 [9] [fold],kon [10] [M⁻¹ s⁻¹],IC50 (read off the curve) [11] [pM],fold drop in binding affinity compared to h2G9.K4G1 [12] [fold],Kd [3] [pM],koff [3] [s⁻¹],Kd [5] [pM],koff [5] [s⁻¹],IC50 (read off the curve) [13] [pM],Binder
≤ 7,≤ 5e-06,≥ 2,501000,14,760000,< 9,< 5e-06,760000,≤ 7,≤ 5e-06,> 2,–,–,–,–,–,–,–,–,"h2G9.K4G1.v19 IgG (antibody, V domains shown, Variable domains only; IgG, constant regions not described; claims 6 and 7); also called humanized 2G9 variant 19) VH: EVQLVQSGAEVKKPGASVKVSCKASGYSLTNYDMHWVRQAPGQGLEWIGYIHSYSGSTLYNQKFKGRVTITVDKSTSTAYLELSSLRSEDTAVYYCARDSNYGEAYAMDYWGQGTLVTVSS VL: DIVMTQSPDSLAVSLGERATINCKASQSVDYSGDSYMNWYQQKPGQPPKLLIYAASNLESGVPDRFSGSGSGTDFTLTISSLQAEDVAVYYCQQINEDPFTFGQGTKVEIKR"
≤ 5,≤ 5e-06,≥ 2,775000,13,945000,< 6,< 5e-06,950000,≤ 5,≤ 5e-06,> 2,780000,–,–,–,–,–,–,–,"h2G9.K4G1.v55 IgG (antibody, V domains shown, Variable domains only; IgG, constant regions not described; claims 8 and 9); also called humanized 2G9 variant 55) VH: EVQLVQSGAEVKKPGASVKVSCKASGYSFTDYDMHWVRQAPGQGLEWIGYISSYSGATTYNQKFKGRVTITVDKSTSTAYLELSSLRSEDTAVYYCARDSNYGEAYAMDYWGQGTLVTVSS VL: DIVMTQSPDSLAVSLGERATINCKASQSLDYYHYSYMNWYQQKPGQPPKLLIYAASNRESGVPDRFSGSGSGTDFTLTISSLQAEDVAVYYCQQINEDPFTFGQGTKVEIKR"
